Measurements: article PMC6353875, “The EZH2 SANT1 domain is a histone reader providing sensitivity to the modification state of the H4 tail” (Scientific Reports, 2019)

Legend:
[1] = molecular target: T1, EZH2 SRM-SANT1 (residues 141–251) (human, UniProt Q15910 141-251); assay: NMR titration; 15N-HSQC spectra of 0.05–0.10 mM 15N-EZH2 SRM-SANT1 with increasing concentrations of histone peptide; 25 °C; Kd from normalized CSPs, one-site model accounting for ligand depletion, averaged over significantly perturbed residues; settings: both partners purified
T1 construct: Enhancer of Zeste Homologue 2 (EZH2), human, residues 141-251: stimulation response motif (SRM), linker and SANT1 domain; cDNA from OpenBiosystems; Uniformly 15N-enriched for the NMR titrations; untagged in the pull-down; also called EZH2 SANT1; source: E. coli Rosetta2 (DE3) pLysS, purified (glutathione agarose, PreScission cleavage, ion exchange, size exclusion); not shown: GST, N-terminal, …

[2] = molecular target: T1, EZH2 SRM-SANT1 (residues 141–251); assay: pull-down; 1 μg purified untagged SRM-SANT1 with 1 μg biotin-tagged H4 peptide overnight at 4 °C in 150 mM NaCl, 50 mM Tris (pH 6.5), 3 mM DTT; captured on streptavidin sepharose, four washes, coomassie staining; triplicates quantified with ImageJ; settings: both partners purified

T1 sequence (Q15910 141-251): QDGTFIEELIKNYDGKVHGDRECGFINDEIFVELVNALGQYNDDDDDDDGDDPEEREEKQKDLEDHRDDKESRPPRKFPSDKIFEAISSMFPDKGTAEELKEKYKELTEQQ

B1: unmodified histone H2B peptide (residues 1–11) (peptide, UniProt P62807 2-12, looked up)
peptide: PEPAKSAPAPK
notes: histone H2B N-terminal tail, residues 1-11; also called H2B (1–11); H2B tail; source: synthetic peptide, bought: AnaSpec (65442-1)
Q: B1 was tested. Which “fold weaker than the H4 tail” value [1] did it give?
A: ~20 fold

B2: unmodified histone H4 peptide (residues 11–21) (peptide, UniProt P62805 12-22, looked up)
peptide: GKGGAKRHRKV
notes: histone H4, residues 11-21 (holds the basic patch); also called H4(11–21); source: synthetic peptide, custom synthesized by GenScript
Q: For B2, which Kd [1] is on record?
A: 700 ± 200 µM

B3: biotinylated unmodified histone H4 peptide (residues 11–27) (peptide, UniProt P62805 12-28, looked up)
peptide: GKGGAKRHRKVLRDNIQ
modifications: biotin (end not stated)
notes: histone H4, residues 11-27; also called unmodified H4 (11–27); source: synthetic peptide, bought: EpiCypher (SKU:12-0035)
Q: Does B3 bind [2]?
A: binds
